According to US20150297742A1:

What was measured:
[1] = target: epidermal growth factor receptor (EGFR) (human) (UniProt P00533); experiment: 125I-labelled conjugate on A431 cells, against unmodified matuzumab
[2] = target: epidermal growth factor receptor (EGFR) (human) (UniProt P00533); experiment: 125I-labelled conjugate on EGFR-positive A431 cells, 37 C, gamma counting (membrane bound plus internalized)

fold of the binding percentage of the unmodified mAb [1] [fold]	% of the applied dose bound (% of applied dose per 10^6 cells) [2]	Substance
3	–	mAb-dMTS (matuzumab conjugated to dendritic tetravalent MTS) (antibody)
3	68	mAb-dPenetratin (matuzumab conjugated to dendritic tetravalent penetratin) (antibody)
4.2	92	mAb-dR9 (matuzumab conjugated to dendritic tetravalent R9) (antibody)
–	47	mAb-dSynB1 (matuzumab conjugated to dendritic tetravalent SynB1) (antibody)

Substance	fold of the binding percentage of the unmodified mAb [1] [fold]	% of the applied dose bound (% of applied dose per 10^6 cells) [2]
mAb-dTAT (matuzumab conjugated to dendritic tetravalent TAT (47-60)) (antibody)	3	–
